Results taken from the supplement of paper PMC9170038.

Tests used:
[1] = tested on: MS2 coat protein; test: apparent KD of MS2 coat protein; higher = weaker reporter binding; conditions: Eterna round: R101
Experimental: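 RNA-MaP: designed FMN/MS2 RNA switches (84 nt design region) are transcribed on-chip within common flanks and titrated with SNAP-549-labelled MS2 coat protein (about 1-3000 nM) in 100 mM Tris pH 7.5, 80 mM KCl, 4 mM MgCl2, without or with 200 uM FMN. Median apparent KD per design; activation ratio = KD,OFF / KD,ON.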

[2] = tested on: MS2 coat protein; test: apparent KD of MS2 coat protein, switch ON state; designed switch direction (-1 OFF switch, 1 ON switch): 1; higher = weaker reporter binding; conditions: FMN input: 0 or 200 uM; Eterna round: R93 (includes R88 designs)
How it was run: (§1)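 In 100 mM Tris-HCl pH 7.5 with 80 mM KCl and 4 mM MgCl2, and without or with constant ligand, SNAP-549-labelled MS2 coat protein was titrated in twofold steps from 0.7 or 1.5 nM to 3 µM. Per-step times went from 0.8–1.5 h down to 10–20 min. The RNA switches were transcribed on-chip from Illumina sequencing clusters, and apparent KD is the per-design median of normalised cluster binding-curve fits.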

[3] = tested on: MS2 coat protein; test: apparent KD of MS2 coat protein, switch OFF state (with FMN for OFF switches, without FMN for ON switches); designed switch direction (-1 OFF switch, 1 ON switch): 1; higher = weaker reporter binding; conditions: FMN input: 0 or 200 uM; Eterna round: R93 (includes R88 designs)
How it was run: as §1

| Sequence | apparent KD of MS2 coat protein ([1]; input ligand: FMN 200 uM) | apparent KD of MS2 coat protein ([1]; input ligand: none) | apparent KD of MS2 coat protein [2] | apparent KD of MS2 coat protein [3] |
| --- | --- | --- | --- | --- |
| AAAAUGAUUUUAGGAUAUGACUCCGAAACGGAGUCAGAAGGAGGAUCACCCUUUCAAAGCUCAGCGUCGAAAGACGCUGAGCAA [#SharedSequence - ExNG1-20] (puzzle (switch architecture): Exclusion NG 1) | 1200 nM | 201 nM | – | – |
| AAAUGAUAUCAGAAGGCGUGGACGAAACGUCCACGAGGAUAUGAGGAUCACCCAUGUCAGGUCAGCCUGCAAAGCAGGCUGACC [#SharedSequence - IExNG1: 7-4] (puzzle (switch architecture): Inverted Exclusion NG 1) | 562 nM | 50.3 nM | – | – |
| AAGCACGAAGAUUAUUAUGAAUAAACAUGAGGAUCACCCAUGUAGGAUAUCGACUCGAAUAGAGUCGAGAAGGACAAAACGUGC [#BasePairInsertion1E] (puzzle (switch architecture): Exclusion NG 3) | 11.6 nM | 6.96 nM | – | – |
| AAGUGAAAUCAGAAGGGCUCCAGCAAAGCUGGAGCAGGAUAUGAGGAUCACCCAUGUCACCUGACGGUCGAAACGACCGUCAGG [#SharedSequence - IExNG1: 6-2] (puzzle (switch architecture): Inverted Exclusion NG 1) | 521 nM | 56.9 nM | – | – |
| CGAAAGGAGAGAGAGGAUAUCCAAAGGAAAACAUGAGGAUCACCCAUGUAGAAGGUAGGAGAUUGGGAGAAGGCUCAAGAUAGAG [salish99-ss2-145] | – | – | 29.5 nM | 73.2 nM |
| CGAAGACAUGAGGAUCACCCAUGUGGGAAUAUGGGAGGAUAUACAAAGACGAGAGUCAGAGUAGAAGGCCUAGGAU [salish99-ss1-105] | – | – | 29.5 nM | 78.7 nM |
| CGCAGGAAGAGAGAGGAUAUCCAAAGGAAAACAUGAGGAUCACCCAUGUAAAAGGUAGGAAAUUGGGAGAAGGCUCAAGAGAGAG [salish99-ss2-100] | – | – | 34.3 nM | 40.9 nM |
| CGGAGACAUGAGGAUCACCCAUGUGAGAAGAGGCGAGGAUAUCGAAAGAAAGAAGAGAAACGAGAAGGCGCGAGCC [salish99-SS1-080(!)] | – | – | 32.1 nM | 31.4 nM |
| CGUGAACAUGAGGAUCACCCAUGUGAAAAACAUAGAGGAUAUGUCACAUGAGUGUAAAAGACAGAAGGCUAUCGUG [Mod 1 of Round 1 starryjess' Mod pf Nando] | – | – | 98 nM | 152 nM |
| CUUAGACAUGAGGAUCACCCAUGUCGAACAAACAAAGGAUAUGGGAGCCGAAGAAGGCUAUUAGAAGGUUGCAAAA [Isesinbe] | – | – | 26.4 nM | 28.6 nM |
| GAAAAAAAAAGGCAGGAUAUCCAAAAAAAAACAUGAGGAUCACCCAUGUAAAAAAAAAAAAAAUGGGAGAAGGGCCAAAAAAAAA [Mat - Same State 2 - Mod - 151] | – | – | 25.5 nM | 35.2 nM |
| GAAAAACAUGAGGAUCACCCAUGUAAAAAUAUGGGAGGAUAUAGAAAGACGAAAGUCAAACUAGAAGGCCUAAAAG [Garnet 1] | – | – | 28.1 nM | 63 nM |
| GAAAAACAUGAGGAUCACCCAUGUAAGAUAAACACAGGAUAUGCGAAAAGAAAGAAAGAAGCAGAAGGGUGAAAAG [Mat - Same State 1 - Tesla mod - 42] | – | – | 15.2 nM | 43.8 nM |
| GAAAAACAUGAGGAUCACCCAUGUAGAAAUAUGGAAGGAUAUACAAAGACGAAAGUCAAAGUAGAAGGUCUAAAAG [Mat - Same State 1 - Eli mod - D13] | – | – | 15.5 nM | 19.8 nM |
| GAAAAACAUGAGGAUCACCCAUGUAGUAAUAUGGAAGGAUAUACAAAGACGUAAGUCAAAGUAGAAGGUCUAAAAG [Garnet 100] | – | – | 21.6 nM | 24.7 nM |
| GAAAAACAUGAGGAUCACCCAUGUGAAAACUUGGGAGGAUAUACUAAGACGAAAGUCGAAGUAGAAGGCCUAAAAG [Same State 1.4j (Mat - Mod of Eli - )] | – | – | 19 nM | 89.1 nM |
| GAAAAACAUGAGGAUCACCCAUGUGACAACAUGGGAGGAUAUACGUGGACGAUAGUCAAAGUAGAAGGCCUAAAAG [Garnet 64] | – | – | 71.7 nM | 18.4 nM |
| GAACCACAUGAGGAUCACCCAUGUCUAAGAAAUUAAGGAUAUGCACAAAAGGAAAUAACUGCAGAAGGUAAACGAA [Redo] | – | – | 25.1 nM | 33.1 nM |
| GAGGACAUAGUACAGGAUAUAUGAAUAGUUACAUGAGGAUCACCCAUGUGCAUUUAUAUGCGCACAUAGAAGGGUGGUAGUUAUC [SameState2 Malc#29] | – | – | 38.8 nM | 33.5 nM |
| GAUAAACAUGAGGAUCACCCAUGUAGAAAUAUGGGAGGAUAUACAAAGACGAAAGUCAAAGUAGAAGGCCUAAAAG [77%, Mat - Mod of Eli - With 1 more U's] | – | – | 24.4 nM | 55.5 nM |

| Sequence | apparent KD of MS2 coat protein ([1]; input ligand: FMN 200 uM) | apparent KD of MS2 coat protein ([1]; input ligand: none) | apparent KD of MS2 coat protein [2] | apparent KD of MS2 coat protein [3] |
| --- | --- | --- | --- | --- |
| GCACCACAUGAGGAUCACCCAUGUAAAACGUAGCAAGGAUAUGGGCACGGAUAAUUCCGAUCAGAAGGUGUAACGC [Gemaditera] | – | – | 105 nM | 35.2 nM |
| GGAAAUAACAGAGAGGAUAUCCAAAGGAAAACAUGAGGAUCACCCAUGUAAAAGGAAGGAAAUUGGGAGAAGGCUCAAAAUAGAA [salish99-ss2-019] | – | – | 15.1 nM | 26.7 nM |
| GGAGCUCCAGCGCAGGAUAUCGACCCAGGGACAUGAGGAUCACCCAUGUUCCAAAAAAAAUGGGUCGAGAAGGGCGUUGGAGAGCC [SAmeState2-III] | – | – | 11 nM | 12.2 nM |
| GGGAAGAACAGAGAGGAUAUCCAAAGGAAAACAUGAGGAUCACCCAUGUAAAAGGAAGGAAAUUGGGAGAAGGCUCAAAAGAGAA [salish99-ss2-023] | – | – | 32.5 nM | 36.4 nM |
| GGGAGACAUGAGGAUCACCCAUGUGAAAACGUGUCAGGAUAUGUAUGGAAACCAUACUGUACAGAAGGGACUUGUC [Quintus Rammius Martialis] | – | – | 54.8 nM | 89.2 nM |
| GGGAGACAUGAGGAUCACCCAUGUGAGAAGAGGCGAGGAUAUCGAAAAAAAAAAAAAAAACGAGAAGGCGCGAGAA [salish99-SS1-003] | – | – | 23.3 nM | 38 nM |
| GGGAGACAUGAGGAUCACCCAUGUGAGAAGAGGCGAGGAUAUCGAAAGAAAGAAGAGAAACGAGAAGGCGCGAGAC [salish99-SS1-061] | – | – | 30.4 nM | 45.1 nM |
| GGGAGGAAGAGAGAGGAUAUCCAAAGGAAAACAUGAGGAUCACCCAUGUAAAAGGUAGGAAAUUGGGAGAAGGCUCAAAAGAGGC [salish99-ss2-042] | – | – | 19.4 nM | 46.6 nM |
| GGGAGGAAGAGAGAGGAUAUCCAAAGGAAAACAUGAGGAUCACCCAUGUAAAAGGUAGGAAAUUGGGAGAAGGCUCAAGAGAAGG [salish99-ss2-050] | – | – | 18.2 nM | 26.6 nM |
| GUGAGGAAGAGAGAGGAUAUCCAAAGGAAAACAUGAGGAUCACCCAUGUAAAAGGUAGGAAAUUGGGAGAAGGCUCAAGAGAGAG [salish99-ss2-067] | – | – | 40.2 nM | 34.7 nM |
| UAAAAACAUGAGGAUCACCCAUGUAGAAACAUGGGAGGAUAUACAAAGACGAAAGUCAAAGUAGAAGGCCUAAAAU [Mat - Same State 1 - Mod - D169] | – | – | 51.4 nM | 43.4 nM |
| UAACAACAUGAGGAUCACCCAUGUCAAAUAAAUCGAGGAUAUGGGACGCAAGACGUCUUACCAGAAGGCGAAACAA [Leoratin] | – | – | 25.1 nM | 70.9 nM |
| UAACUACAUGAGGAUCACCCAUGUCAAAUAAAUCGAGGAUAUGGGACGCAAAACGUCUGACCAGAAGGCGAAACAA [Maquriceri] | – | – | 27.3 nM | 132 nM |
| UAAUAAUAAACCAAGGAUAUGGAGUUUCCAACAUGAGGAUCACCCAUGUUUAGCAUGAAAUCGAUCCAGAAGGUGGAGCCAAAUA [JR_SS002_Sub1005] | – | – | 54.1 nM | 102 nM |
| UACAGACAUGAGGAUCACCCAUGUAGAAUUAUGGGAGGAUAUACAAAGACGAGAGUCAGAGUAGAAGGCCUAGGAU [salish99-ss1-164] | – | – | 23.5 nM | 61.3 nM |
| UAGAGGAAGAGAGAGGAUAUCCAAAGGAAAACAUGAGGAUCACCCAUGUAAAAGGUAGGAAAUUGGGAGAAGGCUCAAGAGAGAG [salish99-ss2-062] | – | – | 30.9 nM | 30.3 nM |
| UAGGGAACAGGGUAGGAUAUGCAUGGUCGUACAUGAGGAUCACCCAUGUAGCCUAGAAAAUAAAUGCAGAAGGACCAAAAGAAAA [Ononmaesra] | – | – | 16.5 nM | 48.3 nM |
| UGAAAGGAGAGAGAGGAUAUCCAAAGGAAAACAUGAGGAUCACCCAUGUAGAAGGUAGGAAAUUGGGAGAAGGCUCAAGAAAGAG [salish99-ss2-139] | – | – | 50.7 nM | 35.4 nM |
| UGGAGACAUGAGGAUCACCCAUGUAGAAGGAUGGGAGGAUAUACAAAGACGAGAGUCAGAGUAGAAGGCCUAGGAG [salish99-ss1-188] | – | – | 31.3 nM | 42.8 nM |
